Test results as given in PMC6202052, “The ectodomains determine ligand function in vivo and selectivity of DLL1 and DLL4 toward NOTCH1 and NOTCH2 in vitro” (eLife, 2018).

T1: N2(1–15)-Fc (human, UniProt Q04721 26-605)
T1 construct: human NOTCH2, printed as N2(1–15); no catalogue number is printed; Captured on protein A sensor tips by its Fc; also called human N2; human NOTCH2; source: bought: R and D systems, used without further purification
T1 sequence (looked up): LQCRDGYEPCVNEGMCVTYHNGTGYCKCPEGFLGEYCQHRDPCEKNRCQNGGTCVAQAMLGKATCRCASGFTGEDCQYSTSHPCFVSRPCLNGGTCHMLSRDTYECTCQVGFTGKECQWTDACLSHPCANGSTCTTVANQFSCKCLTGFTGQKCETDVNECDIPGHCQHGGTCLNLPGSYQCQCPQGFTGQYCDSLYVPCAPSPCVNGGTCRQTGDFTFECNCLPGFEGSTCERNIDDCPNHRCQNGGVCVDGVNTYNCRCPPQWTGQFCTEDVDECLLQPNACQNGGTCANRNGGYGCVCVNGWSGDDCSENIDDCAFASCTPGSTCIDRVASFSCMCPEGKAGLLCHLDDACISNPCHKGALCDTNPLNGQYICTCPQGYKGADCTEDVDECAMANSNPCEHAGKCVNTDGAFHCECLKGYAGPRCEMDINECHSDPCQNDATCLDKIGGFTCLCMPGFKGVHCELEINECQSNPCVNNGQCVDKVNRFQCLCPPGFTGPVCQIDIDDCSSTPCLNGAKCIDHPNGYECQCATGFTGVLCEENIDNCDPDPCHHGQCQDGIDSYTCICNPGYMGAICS


Tests used:
N2(1–15)-Fc = target: T1, N2(1–15)-Fc; test: BLI; BLItz instrument; N2(1–15)-Fc captured on protein A biosensors, ligand samples of varying concentration; HBS-P buffer with 0.005% surfactant P20 and 5 mM CaCl2; equilibrium curves fitted with a one site specific binding model; settings: both partners purified
[1] = target: T2, biotinylated human N1 ectodomain fragment containing EGF repeats 6–15 (human, UniProt P46531 216-604, biotin on the Avi tag (BirA co-expression)); test: BLI; BLItz instrument; biotinylated Notch1 fragment loaded on streptavidin biosensors, dipped into ligand samples of varying concentration until equilibrium; HBS-P buffer with 0.005% surfactant P20 and 5 mM CaCl2; equilibrium curves fitted with a one site specific binding model; settings: both partners purified
T2 construct: human NOTCH1, EGF repeats 6–15 (amino acids 216–604); also called hN1; N1 fragment; source: Expi293F, transiently transfected (co-transfected with BirA and POFUT1), purified from the medium (Ni-NTA, Superdex 200); not shown: Avi (biotinylation) tag, C-terminal, kept

| Kd (N2(1–15)-Fc) | Kd [1] | Binder |
| --- | --- | --- |
| 1280 nM | – | D4N-E5 (DLL4 from the N-terminus through EGF-repeat 5) as used in the N2 binding experiment (domain or fragment, UniProt Q9NR61 27-400, looked up, DLL4, N-terminus through EGF5; it may be the mouse fragment m2); The sentence names hD1N-E5 as human but prints D4N-E5 without a species prefix; source: Expi293F, transiently transfected, purified from the medium (Ni-NTA, Superdex 200)) SGVFQLQLQEFINERGVLASGRPCEPGCRTFFRVCLKHFQAVVSPGPCTFGTVSTPVLGTNSFAVRDDSSGGGRNPLQLPFNFTWPGTFSLIIEAWHAPGDDLRPEALPPDALISKIAIQGSLAVGQNWLLDEQTSTLTRLRYSYRVICSDNYYGDNCSRLCKKRNDHFGHYVCQPDGNLSCLPGWTGEYCQQPICLSGCHEQNGYCSKPAECLCRPGWQGRLCNECIPHNGCRHGTCSTPWQCTCDEGWGGLFCDQDLNYCTHHSPCKNGATCSNSGQRSYTCTCRPGYTGVDCELELSECDSNPCRNGGSCKDQEDGYHCLCPPGYYGLHCEHSTLSCADSPCFNGGSCRERNQGANYACECPPNFTGSNCE |
| 360 nM | – | hD1N-E5 (human DLL1 from the N-terminus through EGF-repeat 5) (domain or fragment, UniProt O00548 18-402, looked up, human DLL1, N-terminus through EGF5; source: Expi293F, transiently transfected, purified from the medium (Ni-NTA, Superdex 200)) QVWSSGVFELKLQEFVNKKGLLGNRNCCRGGAGPPPCACRTFFRVCLKHYQASVSPEPPCTYGSAVTPVLGVDSFSLPDGGGADSAFSNPIRFPFGFTWPGTFSLIIEALHTDSPDDLATENPERLISRLATQRHLTVGEEWSQDLHSSGRTDLKYSYRFVCDEHYYGEGCSVFCRPRDDAFGHFTCGERGEKVCNPGWKGPYCTEPICLPGCDEQHGFCDKPGECKCRVGWQGRYCDECIRYPGCLHGTCQQPWQCNCQEGWGGLFCNQDLNYCTHHKPCKNGATCTNTGQGSYTCSCRPGYTGATCELGIDECDPSPCKNGGSCTDLENSYSCTCPPGFYGKICELSAMTCADGPCFNGGRCSDSPDGGYSCRCPVGYSGFNC |
| – | 1560 nM | mDLL1 fragment (mouse DLL1 from the N-terminus up to and including EGF5) (domain or fragment, mouse DLL1, N-terminus up to and including EGF5; also called DLL1 (from the N-terminus through EGF-repeat 5); D1N-E5; source: Expi293F, transiently transfected, purified from the medium (Ni-NTA, Superdex 200)) not shown |
| – | 430 nM | mD4N-E5 (mouse DLL4 from the N-terminus up to and including EGF5) (domain or fragment, UniProt Q9JI71 27-401, looked up, mouse DLL4, N-terminus up to and including EGF5; also called DLL4 (from the N-terminus through EGF-repeat 5); pLexM-D4N-E5-Avi-His; source: Expi293F, transiently transfected, purified from the medium (Ni-NTA, Superdex 200)) GSGIFQLRLQEFVNQRGMLANGQSCEPGCRTFFRICLKHFQATFSEGPCTFGNVSTPVLGTNSFVVRDKNSGSGRNPLQLPFNFTWPGTFSLNIQAWHTPGDDLRPETSPGNSLISQIIIQGSLAVGKIWRTDEQNDTLTRLSYSYRVICSDNYYGESCSRLCKKRDDHFGHYECQPDGSLSCLPGWTGKYCDQPICLSGCHEQNGYCSKPDECICRPGWQGRLCNECIPHNGCRHGTCSIPWQCACDEGWGGLFCDQDLNYCTHHSPCKNGSTCSNSGPKGYTCTCLPGYTGEHCELGLSKCASNPCRNGGSCKDQENSYHCLCPPGYYGQHCEHSTLTCADSPCFNGGSCRERNQGSSYACECPPNFTGSNCE |
